According to PMC2777438:
Where two headings read alike, the source gives them in different places.

T1: Δ14ArtA (Staphylococcus aureus plasmid pSK41, UniProt Q52270 15-62, del1-14)
T1 chain: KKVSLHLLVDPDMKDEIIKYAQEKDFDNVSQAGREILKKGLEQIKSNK

T2: ArtA (Staphylococcus aureus plasmid pSK41, UniProt Q52270 1-62)
T2 sequence: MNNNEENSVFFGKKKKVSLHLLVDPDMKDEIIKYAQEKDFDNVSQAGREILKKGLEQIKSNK


Experiments:
Δ14ArtA = biological target: T1, Δ14ArtA; test: fluorescence polarization
ArtA [1] = biological target: T2, ArtA; test: fluorescence polarization
ArtA [2] = biological target: T2, ArtA; test: fluorescence polarization; remark: listed apart in the source
ArtA [3] = biological target: T2, ArtA; test: fluorescence polarization; remark: listed apart in the source
ArtA [4] = biological target: T2, ArtA; test: fluorescence polarization; remark: listed apart in the source
ArtA [5] = biological target: T2, ArtA; test: fluorescence polarization; remark: listed apart in the source
ArtA [6] = biological target: T2, ArtA; test: crystal structure

Binder	binding result (Δ14ArtA)	Kd (Δ14ArtA)	Kd (ArtA [1])	also measured
Porf538 Mutant 2 (dsDNA) DNA 1: ACACGACATGAAATTAAACGT DNA 2: ACGTTTAATTTCATGTCGTGT	no binding			binding result (ArtA [1]): no binding
PartA operator (dsDNA) DNA 1: TTGTCATGACATGTCATGTGTAA DNA 2: TTACACATGACATGTCATGACAA		41 ± 9 nM	28 ± 8 nM	
PtraL operator (dsDNA) DNA 1: TGCATTACATGACATGACATGTAAT DNA 2: ATTACATGTCATGTCATGTAATGCA		39 ± 5 nM	23 ± 5 nM	
Porf538 right half site (dsDNA) DNA 1: AAATGACACGT DNA 2: ACGTGTCATTT	no binding			binding result (ArtA [1]): no binding
PtraA operator (dsDNA) DNA 1: TTACATGACATGACATGTAATAC DNA 2: GTATTACATGTCATGTCATGTAA		52 ± 6 nM	42 ± 9 nM	
Porf538 21-mer (dsDNA) DNA 1: ACACGACATGAAATGACACGT DNA 2: ACGTGTCATTTCATGTCGTGT	no binding			Kd (ArtA [2]): 60 ± 10 nM; Kd (ArtA [3]): 42 ± 7 nM; Kd (ArtA [4]): 58 ± 5 nM
11-mer consensus (dsDNA) DNA 1: ACATGACATGT DNA 2: ACATGTCATGT		222 ± 8 nM	127 nM	
Porf259 24-mer (dsDNA) DNA 1: TAAACATTGCATAACATGACAGGT DNA 2: ACCTGTCATGTTATGCAATGTTTA	no binding			binding result (ArtA [5]): no binding
12-mer consensus (crystal) (dsDNA, 5-bromouracil at thymines (MAD DNA only)) DNA 1: GACATGACATGT DNA 2: CACATGTCATGT				binding result (ArtA [6]): binds
Porf259 11-mer (dsDNA) DNA 1: ACATGACAGGT DNA 2: ACCTGTCATGT	no binding		790 ± 34 nM	
Porf538 Mutant 1 (dsDNA) DNA 1: ACACTAAATGAAATGACACGT DNA 2: ACGTGTCATTTCATTTAGTGT	no binding			binding result (ArtA [1]): no binding
16-mer consensus (dsDNA) DNA 1: ACATGACATGACATGT DNA 2: ACATGTCATGTCATGT		58 ± 3 nM	60 ± 3 nM	
Porf538 left half site (dsDNA) DNA 1: ACACGACATCA DNA 2: TGATGTCGTGT	no binding			binding result (ArtA [1]): no binding
22-mer operator (dsDNA) DNA 1: CAAACATGATATGACATGTAAT DNA 2: ATTACATGTCATATCATGTTTG		58 ± 5 nM	62 ± 6 nM	
